Results: patent publication US20240343811A1 (SHANDONG SIMCERE BIOPHARMACUTICAL, published 2024)
Numbering of substitutions follows the chain as printed. Where two headings read alike, the source gives them in different places. Blank lines part the entries; values can stand above or below the binder they belong to.

How the values were obtained:
[1] = molecular target: T1, human CD16a (158V), full length, on cells (human, UniProt P08637 17-254); assay: cell-based or functional assay
[2] = molecular target: T2, cynomolgus monkey CD16, full length, on FlpinCHO cells (cynomolgus monkey, UniProt Q8SPW2 17-254); assay: FACS on FlpinCHO cells
T2 construct: also called FlpinCHO-cyno CD16; Flipin CHO-cyno CD16
T2 sequence (Q8SPW2 other isoform, or with tags, fused parts or gaps limits assumed): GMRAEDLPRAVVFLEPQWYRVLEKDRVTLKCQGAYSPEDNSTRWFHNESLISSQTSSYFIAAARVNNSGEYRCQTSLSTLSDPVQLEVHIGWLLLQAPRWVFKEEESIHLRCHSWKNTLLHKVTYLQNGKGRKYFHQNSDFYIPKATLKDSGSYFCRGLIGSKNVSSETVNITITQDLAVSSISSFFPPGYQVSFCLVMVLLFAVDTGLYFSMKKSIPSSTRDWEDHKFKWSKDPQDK
Description: The required cells were scale-up cultured in a T-75 cell culture flask to the logarithmic growth phase. The medium was aspirated, and the cells were washed twice with a PBS buffer and then digested with trypsin. After the digestion was terminated, the cells were washed twice with the PBS buffer. The cells were counted, and then the cell pellet was resuspended with a [PBS+2% (w/w) BSA] blocking solution to 2×10⁶ cells/ml, and added to a 96-well FACS reaction plate at 50 μl/well. […] 50 μl/well of the antibody to be detected was added at different concentrations, and incubated on ice for 1 hour. […] The mixture was centrifuged and washed 5 times with PBS, and FACS (FACS Canto II, purchased from BD Company) was used for detection and result analysis. Data analysis was performed by software (CellQuest) to obtain the mean fluorescence intensity (MFI) of the cells. Then, software (GraphPad Prism8) was used for analysis, data fitting and EC50 value calculation.
Flipin CHO-cyno CD16 cells were subjected to FACS detection and data analysis according to the method of Example 3.1.

[3] = molecular target: T3, CD16 on primary human NK cells (human, UniProt P08637 17-254); assay: FACS on human NK cells
T3 construct: whole, on cells; also called resting NK cells
Method in brief: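 Freshly prepared human NK cells were resuspended at 2×10⁶ cells/ml in PBS+2% (w/w) BSA and incubated 1 h on ice with antibody at varying concentrations. After five PBS washes, flow cytometry gave mean fluorescence intensity, and EC50 was fitted from the MFI curve.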

[4] = molecular target: T4, Human CD16a (158F)-his (human); assay: SPR (Biacore), antibody captured on Protein A
T4 construct: entry holds ECD, AVI tag, linker and His tag
Method in brief: (§1)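 Protein A–captured antibody was probed with CD16-his ECD in HBS-EP+ at 25 °C: five 2-fold dilutions from 200 nM, 240 s at 30 μL/min, dissociation up to 600 s. Glycine pH 1.5 regenerated the chip. Apparent KD came from a double-referenced 1:1 Langmuir fit.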

[5] = molecular target: T5, Human CD16a (158V)-his (human); assay: SPR (Biacore), antibody captured on Protein A
T5 construct: entry holds ECD, AVI tag, linker and His tag
Method in brief: as §1

[6] = molecular target: T1, human CD16a (158V), full length, on …; assay: FACS, biotinylated antibody, +10 mg/mL human immunoglobulin
[7] = molecular target: T6, human CD16a (158F), full length, on FlpinCHO cells (human, UniProt P08637 17-254); assay: as above
[8] = molecular target: T7, human CD16b (NA1), full length, on FlpinCHO cells (human, UniProt O75015 17-200); assay: FACS on FlpinCHO cells
T7 construct: also called FlpinCHO-human CD16b (NA1)
T7 chain: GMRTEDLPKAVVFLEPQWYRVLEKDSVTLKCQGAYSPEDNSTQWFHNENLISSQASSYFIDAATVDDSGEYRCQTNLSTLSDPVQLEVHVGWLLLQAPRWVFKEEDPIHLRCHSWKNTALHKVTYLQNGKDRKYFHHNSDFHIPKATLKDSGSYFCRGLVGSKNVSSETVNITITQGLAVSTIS
Method in brief: (§2)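 Trypsin-detached FlpinCHO cells expressing full-length CD16b were blocked in PBS+2% BSA and incubated on ice for 1 hour with antibody at varying concentrations. Binding read by flow cytometry as MFI; EC50 from curve fitting.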

[9] = molecular target: T8, human CD16b (NA2), full length, on FlpinCHO cells (human, UniProt O75015 17-200); assay: FACS on FlpinCHO cells
T8 construct: also called FlpinCHO-human CD16b (NA2)
T8 chain: T7 chain with R20S, N49S, D66N, V90I
Method in brief: as §2

[10] = molecular target: T1, human CD16a (158V), full length, on …; assay: FACS on FlpinCHO cells
Method in brief: (§3)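 Trypsinised cells in PBS + 2% BSA were incubated on ice for 1 hour with antibody at a range of concentrations. After washes, mean fluorescence intensity was read by flow cytometry. EC50 values were derived by curve fitting of MFI.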

[11] = molecular target: T6, human CD16a (158F), full length, on …; assay: FACS on FlpinCHO cells
Method in brief: as §3

[12] = molecular target: T1, human CD16a (158V), full length, on …; assay: FACS, biotinylated antibody
[13] = molecular target: T6, human CD16a (158F), full length, on …; assay: FACS, biotinylated antibody
[14] = molecular target: T3, CD16 on primary human NK cells; assay: FACS on human NK cells, biotinylated antibody
[15] = molecular target: T3, CD16 on primary human NK cells; assay: FACS on human NK cells, biotinylated antibody, +10 mg/mL human immunoglobulin
[16] = molecular target: T9, Human CD16b (NA1)-his (human); assay: SPR (Biacore), antibody captured on Protein A
T9 construct: entry holds ECD, linker, His tag and AVI tag
T9 chain: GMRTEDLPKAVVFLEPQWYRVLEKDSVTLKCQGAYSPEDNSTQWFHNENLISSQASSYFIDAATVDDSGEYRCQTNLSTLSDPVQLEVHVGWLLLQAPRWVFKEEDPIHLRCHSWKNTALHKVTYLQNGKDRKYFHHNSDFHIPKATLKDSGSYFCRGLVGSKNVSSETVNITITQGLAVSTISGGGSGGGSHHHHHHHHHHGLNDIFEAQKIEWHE
Method in brief: as §1

[17] = molecular target: T3, CD16 on primary human NK cells; assay: FACS on human NK cells, biotinylated antibody, +10 mg/mL human immunoglobulin; remark: listed apart in the source
[18] = molecular target: T7, human CD16b (NA1), full length, on …; assay: FACS on FlpinCHO cells
Method in brief: as §2

[19] = molecular target: T8, human CD16b (NA2), full length, on …; assay: FACS on FlpinCHO cells
Method in brief: as §2

[20] = molecular target: T1, human CD16a (158V), full length, on …; assay: FACS on FlpinCHO cells; remark: listed apart in the source
[21] = molecular target: T6, human CD16a (158F), full length, on …; assay: FACS on FlpinCHO cells; remark: listed apart in the source
[22] = molecular target: T1, human CD16a (158V), full length, on …; assay: cell-based or functional assay; remark: listed apart in the source
[23] = molecular target: T3, CD16 on primary human NK cells; assay: FACS on human NK cells, biotinylated antibody; remark: listed apart in the source

B2: VHH05 VHH-Fc antibody (Fc fusion)
chain: QVQLVESGGGLVQAGGSLRLSCVASSSTVTTYAVRWYRQAPGKQREWVAFISVDGNTNYPDSVKGRFIVSRDNAKNTVYLQMNSLKPEDTADYICRAGGQYWGQGTQVTVSSEPKSSDKTHTCPPCPAPEFEGGPSVFLFPPKPKDTLMISRTPEVTCVVVAVSHEDPEVKFNWYVDGVEVHNAKTKPREEQYNSTYRVVSVLTVLHQDWLNGKEYKCKVSNKALPAPIEKTISKAKGQPREPQVYTLPPSREEMTKNQVSLTCLVKGFYPSDIAVEWESNGQPENNYKTTPPVLDSDGSFFLYSKLTVDKSRWQQGNVFSCSVMHEALHNHYTQKSLSLSPGK
EC50 [14]: 1.15 nM
Maximum mean fluorescence intensity [14]: 63200
EC50, activation activity for Jurkat cell [1]: 0.03 nM
Maximum fluorescence value [1]: 171000
EC50 [15]: 2.94 nM
Maximum mean fluorescence intensity [15]: 72800
EC50 [3]: 0.62 nM
Maximum mean fluorescence intensity [3]: 2560
Kd [4]: 8.16 nM
koff [4]: 0.000499 s⁻¹
kon [4]: 61200 M⁻¹ s⁻¹
Kd [5]: 3.73 nM
koff [5]: 0.000321 s⁻¹
kon [5]: 86100 M⁻¹ s⁻¹
Kd [16]: 9.28 nM
koff [16]: 0.000958 s⁻¹
kon [16]: 103000 M⁻¹ s⁻¹
EC50 [6]: 1.7 nM
Maximum mean fluorescence intensity [6]: 13300
EC50 [7]: 1.51 nM
Maximum mean fluorescence intensity [7]: 10000
EC50 [8]: 0.96 nM
Maximum mean fluorescence intensity [8]: 42500
EC50 [10]: 0.53 nM
Maximum mean fluorescence intensity [10]: 8100
EC50 [11]: 0.49 nM
Maximum mean fluorescence intensity [11]: 7320
EC50 [12]: 0.74 nM
Maximum mean fluorescence intensity [12]: 12400
EC50 [13]: 0.33 nM
Maximum mean fluorescence intensity [13]: 8780

B3: VHH06-04 humanized VHH-Fc antibody (Fc fusion)
chain: EVQLVESGGGVVQPGGSLRLSCAASGSTWTTYAVRWYRQAPGKQREWVAFISVDGSTNYPDSVKGRFTISRDNSKNTVYLQMNSLRAEDTADYICRVGGQYWGQGTMVTVSSEPKSSDKTHTCPPCPAPEEFGGPSVFLFPPKPKDTLMISRTPEVTCVVVAVSHEDPEVKFNWYVDGVEVHNAKTKPREEQYNSTYRVVSVLTVLHQDWLNGKEYKCKVSNKALPAPIEKTISKAKGQPREPQVYTLPPSREEMTKNQVSLTCLVKGFYPSDIAVEWESNGQPENNYKTTPPVLDSDGSFFLYSKLTVDKSRWQQGNVFSCSVMHEALHNHYTQKSLSLSPGK
EC50 [17]: 3.99 nM
Maximum mean fluorescence intensity [17]: 71400
EC50 [18]: 0.32 nM
Maximum mean fluorescence intensity [18]: 53000
Maximum mean fluorescence intensity [19]: 437
binding result [19]: no binding (tested: 100 nM)
EC50 [20]: 0.4 nM
Maximum mean fluorescence intensity [20]: 8890
EC50 [21]: 0.39 nM
Maximum mean fluorescence intensity [21]: 9570
EC50, activation activity for Jurkat cell [22]: 0.02 nM
Maximum fluorescence value [22]: 159000
EC50 [23]: 1.34 nM
Maximum mean fluorescence intensity [23]: 61800
Kd [4]: 9.8 nM
koff [4]: 0.000467 s⁻¹
kon [4]: 47700 M⁻¹ s⁻¹

Now from value to binder:

EC50, activation activity for Jurkat cell [1]: 0.02 nM
Maximum fluorescence value [1]: 165000
EC50 [2]: 0.24 nM
Maximum mean fluorescence intensity [2]: 21400
EC50 [3]: 0.15 nM
Maximum mean fluorescence intensity [3]: 2630
Kd [4]: 22.2 nM
koff [4]: 0.0192 s⁻¹
kon [4]: 866000 M⁻¹ s⁻¹
Kd [5]: 19.8 nM
koff [5]: 0.0362 s⁻¹
kon [5]: 1.83e+06 M⁻¹ s⁻¹
EC50 [6]: 1.09 nM
Maximum mean fluorescence intensity [6]: 9660
EC50 [7]: 0.67 nM
Maximum mean fluorescence intensity [7]: 5830
EC50 [8]: 0.77 nM
Maximum mean fluorescence intensity [8]: 51400
EC50 [9]: 1.11 nM
Maximum mean fluorescence intensity [9]: 70200
EC50 [10]: 0.24 nM
Maximum mean fluorescence intensity [10]: 6660
EC50 [11]: 0.18 nM
Maximum mean fluorescence intensity [11]: 6020
EC50 [12]: 0.25 nM
Maximum mean fluorescence intensity [12]: 9620
EC50 [13]: 0.16 nM
Maximum mean fluorescence intensity [13]: 6240
B1: VHH13 VHH-Fc antibody (Fc fusion)
chain: EVQVVESGGGLVQAGGSLRLSCAASGITFSSYAMGWYRQAPGKQRELVAAINRFGLTNYADSVKGRFTISRDNAKSTVYLQMTSLKPEDTAVYYCNTGGVYSHPDYYTGTYWGQGTQVTVSSEPKSSDKTHTCPPCPAPEFEGGPSVFLFPPKPKDTLMISRTPEVTCVVVAVSHEDPEVKFNWYVDGVEVHNAKTKPREEQYNSTYRVVSVLTVLHQDWLNGKEYKCKVSNKALPAPIEKTISKAKGQPREPQVYTLPPSREEMTKNQVSLTCLVKGFYPSDIAVEWESNGQPENNYKTTPPVLDSDGSFFLYSKLTVDKSRWQQGNVFSCSVMHEALHNHYTQKSLSLSPGK

EC50 [17]: 3.66 nM
Maximum mean fluorescence intensity [17]: 64900
EC50 [18]: 0.18 nM
Maximum mean fluorescence intensity [18]: 55200
Maximum mean fluorescence intensity [19]: 296
binding result [19]: no binding (tested: 100 nM)
EC50 [20]: 0.23 nM
Maximum mean fluorescence intensity [20]: 8840
EC50 [21]: 0.27 nM
Maximum mean fluorescence intensity [21]: 8890
EC50, activation activity for Jurkat cell [22]: 0.03 nM
Maximum fluorescence value [22]: 176000
EC50 [23]: 1.33 nM
Maximum mean fluorescence intensity [23]: 53900
Kd [4]: 26.9 nM
koff [4]: 0.00109 s⁻¹
kon [4]: 40300 M⁻¹ s⁻¹
B4: VHH06-05 humanized VHH-Fc antibody (Fc fusion)
chain: B3 chain with P60A, S74A
